In general, Km refers to the substrate concentration at which the rate is half of its maximum.

B1: SbGT30 (Scutellaria baicalensis) (protein)
chain: MGQLHIVLVPMIAHGHMIPMLDMAKLFSSRGVRTTIIATPAFAEPIRKARESGHDIGLTTTKFPPKGSSLPDNILSLDQVTHDLLPHFFRALELLQEPVEEIMEDLKPNCLVSDMFLPWTTDSAAKFGIPRLLFHGTSLFARCFAEQMSLQKPYKNVSSDSEPFVLRGLPHEVSFVRTQIPGYELQEGGDDAFSKMAKQMRDADKKSYGDVINSFEELESEYVDHYKNVFGKKAWHIGPLSLCNNRAEQKSPIDDHECLAWLNSKKPNSVVYMCFGSMATFSPAQLHETAVGLESSGQDFIWVVRNGGENEDWLPQGFEERIKGKGLMIRGWAPQVVILDHPSTGAFVTHCGWNSTLEGICAGLPMVTWPVFAEQFYNEKLVTEVLKTGVSVGNKKWQRVGEWVGSEAVKEAVEWVMVGDGAAEMRSRANYYKEMARKAVEDGGSSYNNLNALIQELSAYVPPMKQGLN
notes: full-length cDNA in pTWIN1B; E. coli BL21 (DE3)
B2: SbGT34 (Scutellaria baicalensis) (protein)
chain: MGQLHIVLVPMIAHGHMIPMLDMAKLFSSRGVKTTIIATPAFAEPIRKARESGHDIGLTTTKFPPKGSSLPDNIWSLDQVTDDLLPHFFRALELLQEPVEEIMEDLKPNCLVSDMFLPWTTDSAAKFGIPRLLFHGTSLFARCFAEQMSLQKPYKNVSSDSEPFVLRGLPHEVSFVRTQIPGYELQEGGDDAFSKMAKQMRDADKKSYGDVINNFEELESEYVDHYKNVFGKKAWHIGPLSLCNNRAEQKSPIDDHECLAWLNSKKPNSVVYMCFGSMATFTPAQLHETAVGLESSGQDFIWVVRNGGENEDWLPQGFEERIKGKGLMIRGWAPQVMILDHPSTGAFVTHCGWNSTLEGICAGLPMVTWPVFAEQFYNEKLVTEVLKTGVSVGNKKWQRVGEGVGSEAVKEAVERVMVGDGAAEMRSRAIYYKEMARKAVEEGGSSYNNLNALIEELSAYVPPMKQGLN
notes: as for B1
B3: SbGT56 (Scutellaria baicalensis) (protein)
chain: MGQLHIVLVPMIAHGHMIPMLDMAKLFSSRGVKTTIIATPAFAEPIRKARESGHDIGLTTTKFPPKGSSLPDNIRSLDQVTGDLLPHFFRALELLQEPVEEIMEDLKPNCLVSDMFLPWTTDSAAKFGIPRLVFHGTSLFARCFSEQMSIQKPYKNVSSDSEPFVLRGLPHEVSFVRTQIPDYELQEGGDDAFSKMAKQMRDADKKSYGDVINSFEELESEYADYNKNVFGKKAWHIGPLKLFNNRAEQKSSQRGKESAIDDHECLAWLNSKKPNSVVYMCFGSMATFTPAQLHETAVGLESSGQDFIWVVRNGGKNEDWLPQGFEERIKGKGLMIRGWAPQVMILDHPSTGAFVTHCGWNSTLEGICAGLPMVTWPVFAEQFYNEKLVTEVLKTGVSVGNKKWQRVGEGVGSEAVKEAVERVMVGDGAAEMRSRAVYYKEMARKAVEEGGSSYNNLNALIQELSAYVPPMKQGLN
notes: as for B1

Substrate in this data set: O=c1cc(-c2ccc(O)cc2)oc2cc(O)c(O)c(O)c12
Put plainly: HPLC glucosyltransferase assay, Lineweaver-Burk plot. The settings on record: 2 mM UDP-glucose (saturating), 50 mM Tris-HCl pH 7.5, 30 °C. It is filed as biochemical, Scutellaria baicalensis.
For B1, the Km amounted to 188 µM.

With B2, the Km came to 121 µM.

Regarding B3, the Michaelis-Menten constant (Km) is 222 µM.

Values taken from PMC4973555, “Engineering Saccharomyces cerevisiae with the deletion of endogenous glucosidases for the production of flavonoid glucosides” (Microbial Cell Factories, 2016).
